These results are taken from patent publication US10975142B2, “Endotrophin neutralization and use thereof” (THE BOARD OF REGENTS OF THE UNIVERSITY OF TEXAS SYSTEM, priority 2013, dated 2021).

The test system of one assay is tumors from PyMT mice. Kind of assay: allografts of PyMT tumor pieces, cisplatin with TZD or 10B6. It counts as in vivo. Conditions: cisplatin 1 mg/kg every 5 days combined with TZD 20 mg/kg or 10B6 100 μg/mouse once a week; 2-months post implantation. As for the experimental part:
FIGS. 22A-22E. Neutralizing endotrophin activities with monoclonal antibodies sensitizes tumors to cisplatin treatment. FIG. 22A. Pieces of tumors from PyMT mice were implanted into wild-type hosts. Tumor-bearing mice were given cisplatin (1 mg/kg, ip., every 5 days) or PBS, combined with either TZD (20 mg/kg) or anti-endotrophin monoclonal antibodies (100 μg/mouse, once a week) for tumor progression. Tumor volumes were determined by caliper measurements. Data represent mean±SD (n=5/group). *p<0.05, **p<0.01, ***p<0.001 vs. Cisplatin by 2-way ANOVA. FIGS. 22B-22D. 4T1 (0.5×10^6/mouse) cells were xenografted in nude mice and monitored tumor growth (FIG. 22B) and metastasis (FIG. 22C). […] Tumor volumes were determined by caliper measurements. […] Metastatic burden was determined by measuring metastatic lesion area in lung tissues with H&E stains. Quantified data represent mean±SD (n=5/group). **p=0.0007 and *p=0.0209 vs. CIS/10B6 by unpaired student t-test. mRNA levels for EMT markers such as vimentin, snail, slug, twist1, twist2 and S100S4 were determined by RT-qPCR (FIG. 22D). […]
As a last step, therapeutic potential of a previously described endotrophin neutralizing antibody (clone 10B6) on cisplatin sensitivity was determined. […] Tumor regression was monitored for 2-months post implantation. […]

The subject of a further assay is PyMT mice. Kind of assay: 10B6 treatment of PyMT mice, tumor growth. Type of assay: in vivo. As to conditions: 10B6 200 μg/mouse i.p. twice weekly, 9 to 13 weeks of age, vs isotype control IgG. As for the experimental part:
FIGS. 8A-8I: 10B6 blocks ETP-mediated stromal expansion in vivo. (FIG. 8A) 10B6 (200 μg/mouse) was i.p. injected twice weekly into PyMT mice from 9 to 13 weeks of age. Tumor growth (mean±SEM; n=4-6 per group) was determined by weekly caliper measurements. *P<0.05, **P<0.01, ***P<0.001 vs. IgG control, 2-way ANOVA. (FIG. 8B) Primary mammary epithelial cancer cells were isolated from 12-week-old FP635/PyMT and FP635/PyMT/ETP mice and implanted into WT recipients with the same volume of Matrigel. For the 10B6 group, 10B6 was added in a Matrigel plug (10 μg/plug) admixed with ETP^+-cancer cells (i.e., ETP^+/10B6). A representative whole-body image was acquired 25 days after implantation using IVIS fluorescence scanner. Artificial color indicates fluorescence signal intensity accounts for tumor volume (AU). Quantitative results are represented as mean±SEM (n=3 per group). *P<0.05, unpaired t test. […] Quantified results in FIGS. 8D-8I are mean±SEM (multiple images, n=3 per group). *P<0.05, **P<0.01, unpaired t test. […]
Tumor onset was monitored twice weekly by palpation. Tumor sizes were measured with a digital caliper twice weekly and the volumes were calculated as […]. […] Metastatic tumor growth was determined by histological analysis with H&E stained lung tissues.

Assay [1] concerns diet induced obese (DIO) mice. Kind of assay: diet induced obese mice, serum and hepatic lipid parameters. Type of assay: in vivo, mouse. The method, then:
FIGS. 26A-26G: Endotrophin neutralization improves the metabolic phenotype. FIG. 26A. Two cohorts of mice (n=8) were exposed to high fat diet for 45 days after weaning. At the indicated time points (arrowheads), mice were treated with anti-endotrophin monoclonal antibodies (100 µg/mouse) or equivalent amounts of non-immune antibody. Body weights were monitored. FIG. 26B. Plasma Triglycerides and FIG. 26C. plasma free fatty acids (NEFAs) and FIG. 26D. plasma cholesterol were measured. FIG. 26E. Hepatic triglycerides and FIG. 26F. hepatic cholesterol were measured. Significant differences as indicated by unpaired student t-test. FIG. 26G. […] Scale bar=25 μm.
To evaluate the therapeutic potential of endotrophin neutralizing monoclonal antibodies on lipid parameters, a separate cohort of diet induced obese (DIO) mice were chronically treated with either IgG control or 10B6 (rat anti-mouse endotrophin monoclonal antibody) via intraperitoneal injection at 2 weeks after high-fat diet (HFD) challenge and maintained them on a HFD with antibody treatment for another 4 weeks, similar to the experiment described in FIG. 24.

B1: 10B6: rat anti-mouse endotrophin monoclonal antibody; light chain variable SEQ ID NO: 2, heavy chain variable SEQ ID NO: 4 (antibody, V domains shown)
VH: QVQLQQSGPELAKPGSSVKISCKASGYTFTSYEMHWIKQRPGQGLEWIGYIYPESGSTGYNEKFKGKATLTVDKSSPTAYMQLSSLTPDNSAVYFCTRGLRVLGYVMDVWGHGTSVTVSS
VL: DVQLTQSPSFLSASVGDRVTINCKASQNINKYLNWYQQKLGEAPKRLIYNTNNLQTGIPSRFSGSASGTDYTLTISSLHPEDFATYFCLQHSSLYTFGAGTKLELK
Take B1: the “tumor growth / sensitization of the tumors to cisplatin treatment” value in the assay with tumors from PyMT mice is listed as “efficiently sensitize”. Further, the tumor growth result with PyMT mice is “significantly attenuated”. Moreover, in assay [1] (10B6 vs IgG), the hepatic cholesterol levels result is reported as “comparable”, the “levels of hepatic triglycerides” value is given as “improved”, the “levels of serum triglyceride” value is listed as “dramatically improved” and the serum cholesterol levels entry is reported as “less affected”. Also, in assay [1] (10B6 vs IgG), the “serum free fatty acids” value is “dramatically improved”. Further, in assay [1] (H&E stains, 10B6 vs IgG control), the hepatic lipid accumulation result was “significantly reduced”.
